These results are taken from publication PMC4773433, “The Bub1–Plk1 kinase complex promotes spindle checkpoint signalling through Cdc20 phosphorylation” (Nature Communications, 2016).

One test concerns the target T1, His6-Cdc20^ΔN60 WT (human, UniProt Q12834 61-499).
T1 construct: Cdc20, human, residues 61-499 (Cdc20^ΔN60); also called Cdc20 WT; recombinant Cdc20; source: Sf9, purified (Ni-NTA)
Nature of the test: pull-down; purified His6–Cdc20^ΔN60 WT or S92E immobilised on Ni-NTA beads, incubated with BubR1N and Mad2, 1 h at room temperature, five washes, immunoblotting. To be noted: both partners purified.

The target in a further test is T2, His6-Cdc20^ΔN60 S92E (human, UniProt Q12834 61-499, S92E).
T2 construct: Cdc20, human, residues 61-499 (Cdc20^ΔN60), phospho-mimicking S92E; also called Cdc20 S92E; source: Sf9, purified (Ni-NTA)
The test is described as above. The settings on record: both partners purified.

T2 sequence (Q12834 61-499 S92E): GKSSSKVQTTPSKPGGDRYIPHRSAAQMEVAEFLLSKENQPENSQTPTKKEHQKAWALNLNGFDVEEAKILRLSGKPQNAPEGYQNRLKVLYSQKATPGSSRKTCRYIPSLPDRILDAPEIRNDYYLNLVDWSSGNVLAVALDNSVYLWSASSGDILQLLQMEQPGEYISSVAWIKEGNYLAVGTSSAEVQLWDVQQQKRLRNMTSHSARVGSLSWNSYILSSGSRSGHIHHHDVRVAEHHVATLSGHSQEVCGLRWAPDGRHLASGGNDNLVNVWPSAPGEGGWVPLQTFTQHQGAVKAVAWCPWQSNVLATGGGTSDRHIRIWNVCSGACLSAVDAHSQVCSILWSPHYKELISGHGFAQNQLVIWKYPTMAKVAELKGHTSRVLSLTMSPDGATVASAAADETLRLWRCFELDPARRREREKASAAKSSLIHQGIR
T1 sequence (Q12834 61-499, stated change not applied): as the sequence (Q12834 61-499 S92E) above, with E32S counted along it

B1: BubR1 N-terminal fragment (BubR1N; residues 1–370) (domain or fragment, human, UniProt O60566 1-370, looked up)
chain: MAAVKKEGGALSEAMSLEGDEWELSKENVQPLRQGRIMSTLQGALAQESACNNTLQQQKRAFEYEIRFYTGNDPLDVWDRYISWTEQNYPQGGKESNMSTLLERAVEALQGEKRYYSDPRFLNLWLKLGRLCNEPLDMYSYLHNQGIGVSLAQFYISWAEEYEARENFRKADAIFQEGIQQKAEPLERLQSQHRQFQARVSRQTLLALEKEEEEEVFESSVPQRSTLAELKSKGKKTARAPIIRVGGALKAPSQNRGLQNPFPQQMQNNSRITVFDENADEASTAELSKPTVQPWIAPPMPRAKENELQAGPWNTGRSLEHRPRGNTASLIAVPAVLPSFTPYVEETARQPVMTPCKIEPSINHILSTRK
notes: source: bacteria, purified (Ni-NTA, TEV digestion, Resource Q, Superdex 200)
As for B1, the binding result in the test with His6-Cdc20^ΔN60 WT and with His6-Cdc20^ΔN60 S92E was “binds” in each case.
